Assay results published in patent US20090029392.

Test system: T1, Biotin-GDEVDGC biotinylated peptide substrate for caspase-3, coupled to aminated CLIO
T1 sequence: GDEVDGC

In the case of Caspase 3, the “T2 relaxation time (dispersal of the aggregate after cleavage of the peptide)” value is reported as “When the inhibitor is not added or capase is added, the aggregate is dispersed resulting in an increase of T2”.
